Results on 1 protein are retold here after publication PMC6515407, “Laccases with Variable Properties from Different Strains of Steccherinum ochraceum: Does Glycosylation Matter?” (International Journal of Molecular Sciences, 2019).

Experiment in all cases: spectrophotometric oxidation kinetics
What all share (assay type): biochemical, Steccherinum ochraceum
Holding throughout (conditions): 0.1 M McIlvaine buffer pH 4.5, 25 °C, native glycosylated enzyme

Substrate in data set [1]: CCn1c(=NN=c2sc3cc(S(=O)(=O)O)ccc3n2CC)sc2cc(S(=O)(=O)O)ccc21
The source says: (§1) spectrophotometric oxidation kinetics on So2134

Substrate in data set [2]: COc1cc(C=NN=Cc2cc(OC)c(O)c(OC)c2)cc(OC)c1O
Text: as §1

Substrate in data set [3]: COc1cccc(OC)c1O
Text: as §1

B1: So2134 (Steccherinum ochraceum) (protein)
chain: VQIGPVTDLHITNANIAPDGFTRPAVLAGGTFPGPTISGNTGDNFQITVFNELTETSMLTDTSIHWHGLFQKGTNWADGPAFVTQCPIITGNSFDYNFNVPGQAGTYWYHSHLSTQYCDGLRGPFVVYDPNDPNASLYDVDDDTTIITLADWYHTLAQQEPIGAAITADATLINGLGRSFTNTTASPLSVITVQSGKRYRMRLVSISCDPNYQFSIDGHDMTIIEVDGVNSQQLTVDQIQIFAAQRYSFVLNANQPVGNYWIRAQPNSGGQGFDGGINSAILRYEGATVADPTTSPPTTFTSPLVETNLHPLADLGVPGQPFRGGADDPMVLNLGFANGRFTIDGVSFVPPTVPVLLQILSGAQNAQDLLPAGSVISLPPNSVIEVALPAGAAGGPHPFHLHGHNFAVVQSANNATPNYVNPIWRDTVSIGGTGDNVTIRFTTNNPGPWFLHCHIDWHLEAGFAIVFAEDIPDTASANPVPQAWSDLCPAYDQAHNISTAT
Regarding B1, in data set [1], the Km came to 100 ± 6 µM, the kcat amounted to 254 ± 23 s⁻¹ and the kcat/Km was determined as 2.54e+06 ± 276000 M⁻¹ s⁻¹. Further, in data set [2], the Km is 3.7 ± 0.5 µM, the kcat came out at 91 ± 7 s⁻¹ and the kcat/Km was 2.46e+07 ± 3.93e+06 M⁻¹ s⁻¹. In addition, in data set [3], the Km amounted to 21 ± 2 µM, the kcat was 166 ± 14 s⁻¹ and the catalytic efficiency (kcat/Km) was 7.9e+06 ± 1.03e+06 M⁻¹ s⁻¹.
